We go through two molecules from patent US10442866.

In assay [1] the target is recombinant human OX40-his (Sino Biological, Cat#:10481-H03H) (human) (UniProt P43489). Briefly: ELISA on coated human OX40-His, OD450. Background: ELISA stands for enzyme-linked immunosorbent assay.
For assay [2], the target named is recombinant rhesus OX40-his (Sino Biological, Cat#:90846-C08H) (rhesus monkey). Briefly: ELISA, coated rhOX40-his.
Assay [3] concerns the target recombinant human OX40-his (Sino Biological, Cat#:10481-H03H) (human) (UniProt P43489). Briefly: SPR Biacore 8K, OX40-His on chip, antibody injected.
Assay [4] shares this target. Briefly: ELISA, coated hOX40-his.
In assay [5] the target is rhesus OX40 expressed on HEK293A cells (rhesus). Briefly: FACS on HEK293A cells.
Assay [6] concerns the target human OX40 expressed on HEK293A cells (human) (UniProt P43489). Kind of assay: FACS on HEK293A cells.
For assay [7], the target named is human OX40-CD40 fusion protein on HEK-Blue reporter cells (human). Kind of assay: cell-based or functional assay.
Assay [8] has as its target recombinant rhesus OX40-his (Sino Biological, Cat#:90846-C08H) (rhesus monkey). Kind of assay: ELISA on coated rhesus OX40-His, OD450.
Assay [9] has as its target human OX40 expressed on HEK293A cells (human) (UniProt P43489). Briefly: FACS on HEK293A/huOX40 cells, MFI.
Assay [10] deals with rhesus OX40 expressed on HEK293A cells (rhesus). Kind of assay: FACS on HEK293A/rhOX40 cells, MFI.

Sequence of human OX40 expressed on HEK293A cells (human) (P43489 29-277 limits assumed): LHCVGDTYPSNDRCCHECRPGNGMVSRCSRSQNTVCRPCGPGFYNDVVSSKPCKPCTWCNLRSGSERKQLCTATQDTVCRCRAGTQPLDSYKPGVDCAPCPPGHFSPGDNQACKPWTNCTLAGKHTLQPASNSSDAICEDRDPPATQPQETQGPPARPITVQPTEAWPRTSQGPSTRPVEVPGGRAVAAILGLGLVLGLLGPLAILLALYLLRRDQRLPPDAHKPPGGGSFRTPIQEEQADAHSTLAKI
Sequence of recombinant rhesus OX40-his (Sino Biological, Cat#:90846-C08H) (rhesus monkey) (P43489 other isoform, or with tags, fused parts or gaps C08H C08H limits assumed): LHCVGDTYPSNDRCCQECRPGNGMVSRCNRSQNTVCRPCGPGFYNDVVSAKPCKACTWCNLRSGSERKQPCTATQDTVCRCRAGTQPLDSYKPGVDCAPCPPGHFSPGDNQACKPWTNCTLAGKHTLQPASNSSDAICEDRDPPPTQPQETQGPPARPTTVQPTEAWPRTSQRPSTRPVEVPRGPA
Sequence of recombinant human OX40-his (Sino Biological, Cat#:10481-H03H) (human) (P43489 29-214 limits assumed): as the sequence (P43489 other isoform, or with tags, fused parts or gaps C08H C08H limits assumed) above, with Q16H, N29S, A50S, A55P, P70L, P145A, T159I, R173G, R183G, P185R counted along it
Sequence of rhesus OX40 expressed on HEK293A cells (rhesus) (P43489 other isoform, or with tags, fused parts or gaps limits assumed): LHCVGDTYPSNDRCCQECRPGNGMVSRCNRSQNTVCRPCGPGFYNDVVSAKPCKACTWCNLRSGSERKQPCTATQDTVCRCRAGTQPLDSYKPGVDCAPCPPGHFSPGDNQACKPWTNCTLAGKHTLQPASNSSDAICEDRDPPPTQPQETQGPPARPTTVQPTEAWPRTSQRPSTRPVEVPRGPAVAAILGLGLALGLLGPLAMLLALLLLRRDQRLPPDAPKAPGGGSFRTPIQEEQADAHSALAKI
Sequence of human OX40-CD40 fusion protein on HEK-Blue reporter cells (human) (chain, as listed by the source limits assumed): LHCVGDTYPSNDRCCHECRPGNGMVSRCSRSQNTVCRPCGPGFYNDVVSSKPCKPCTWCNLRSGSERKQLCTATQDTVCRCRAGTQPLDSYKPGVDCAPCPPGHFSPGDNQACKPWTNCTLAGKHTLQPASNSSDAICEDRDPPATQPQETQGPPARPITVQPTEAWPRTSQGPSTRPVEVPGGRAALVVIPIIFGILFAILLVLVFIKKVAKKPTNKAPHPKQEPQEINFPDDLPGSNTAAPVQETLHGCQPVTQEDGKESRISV

B1: MEDI0562 (antibody, INN chains, looked up, V domains shown)
VH: QVQLQESGPGLVKPSQTLSLTCAVYGGSFSSGYWNWIRKHPGKGLEYIGYISYNGITYHNPSLKSRITINRDTSKNQYSLQLNSVTPEDTAVYYCARYKYDYDGGHAMDYWGQGTLVTVSS
VL: DIQMTQSPSSLSASVGDRVTITCRASQDISNYLNWYQQKPGKAPKLLIYYTSKLHSGVPSRFSGSGSGTDYTLTISSLQPEDFATYYCQQGSALPWTFGQGTKVEIK
One may read the EC50 (read off the curve) as the midpoint of the concentration-response curve. As usually defined, the EC50 is the concentration that produces a half-maximal response. Usually Kd stands for the constant that tells how readily two partners part at equilibrium. What is called koff is a measure of how fast the partners let go of each other. In general, kon refers to the rate constant with which the complex forms. On to B1, for which the EC50 (read off the curve) in [1] turned out to be 3 ng/mL; in assay [8], 3 ng/mL; in [9], 300 ng/mL; in assay [10] it was 300 ng/mL. The EC50 in [2] amounted to 0.0546 µg/mL; in assay [4], 0.0651 µg/mL; in assay [5], 0.088 µg/mL; in assay [6], 0.0935 µg/mL. In addition, the Kd in assay [3] was found to be 1.79 nM. For the same molecule, the koff in [3] was 0.000154 s⁻¹. In assay [3], the kon is 86300 M⁻¹ s⁻¹. This molecule returned an EC50, agonistic activity in HEK-Blue assay in [7] of 310 ng/mL.

B2: RG7888 (antibody, INN chains, looked up, V domains shown)
VH: EVQLVQSGAEVKKPGASVKVSCKASGYTFTDSYMSWVRQAPGQGLEWIGDMYPDNGDSSYNQKFRERVTITRDTSTSTAYLELSSLRSEDTAVYYCVLAPRWYFSVWGQGTLVTVSS
VL: DIQMTQSPSSLSASVGDRVTITCRASQDISNYLNWYQQKPGKAPKLLIYYTSRLRSGVPSRFSGSGSGTDFTLTISSLQPEDFATYYCQQGHTLPPTFGQGTKVEIK
Turning to B2, the EC50 (read off the curve) in assay [1] and in assay [8] was 3 ng/mL in each case. Also, the EC50 came to 0.0668 µg/mL in [2], 0.0637 µg/mL in assay [4], 0.113 µg/mL in assay [5] and 0.134 µg/mL in [6]. In addition, the Kd in assay [3] stood at 0.00549 nM. For the same molecule, in assay [3], the koff was 1.76e-06 s⁻¹. Besides, the kon in assay [3] came to 322000 M⁻¹ s⁻¹. In addition, in [7], the EC50, agonistic activity in HEK-Blue assay was 121 ng/mL.
